Blank lines part the entries; values can stand above or below the molecule they belong to.
Key:
human myostatin (GDF8) = human myostatin (GDF8) (human, UniProt O14793 267-375); assay: cell-based or functional assay
TGF-β1 [1] = biological target: T1, TGF-β1 (UniProt P01137 279-390); assay: cell-based or functional assay
TGF-β1 [2] = biological target: T1, TGF-β1; assay: SPR indirect binding assay: binder titrated against 5 nM TGF-β1, free TGF-β1 measured on the 1D11 surface
Method: (§1) SPR data was generated using a Biacore 3000 instrument (G.E. Healthcare Inc.) using HBS as running buffer. […] A twenty-fold stock concentration of TGF-β (100 nM in 10 mM acetic acid) was used. […] Blank injection samples were made from 10 μl 10 mM acetic acid mixed with 190 uL HBS. […] All sensogram analysis was carried out using Biacore BiaEvaluation software v4.1 (G.E. Healthcare Inc.).

TGF-β1 [3] = biological target: T1, TGF-β1; assay: SPR (Biacore) solution competition: trap coinjected with 5 nM TGF-β1 over immobilised 1D11 anti-TGF-β antibody; plateau response measures free TGF-β1
TGF-β1 or -β3 = assay: SPR (Biacore) solution competition: binder pre-incubated with 5 nM TGF-β (β1 or β3, isoform not named on the sheet), injected over immobilised 1D11 anti-TGF-β antibody; plateau response measures free TGF-β
TGF-β2 = biological target: T2, TGF-β2 (UniProt P61812 303-414); assay: SPR (Biacore), 100 nM injected over immobilised TGF-β2
T2 sequence (looked up): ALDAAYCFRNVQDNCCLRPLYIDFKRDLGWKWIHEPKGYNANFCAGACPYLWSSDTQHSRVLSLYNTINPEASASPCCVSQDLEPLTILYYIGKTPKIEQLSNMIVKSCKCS

TGF-β1 [4] = biological target: T1, TGF-β1; assay: SPR (Biacore) solution competition: binder pre-incubated with 5 nM TGF-β1, injected over immobilised 1D11 anti-TGF-β antibody; plateau response measures free TGF-β1
Method: as §1

Molecule: ActRIIB monomer (receptor)
IC50, neutralization of myostatin in A204 cells with (CAGA)12-luciferase reporter (human myostatin (GDF8)): 0.38 nM

B1: N-His (TβRII)^2 (designed binder)
chain: APMAEGGGQNHHHHHHHHGGSFNPRIPPHVQKSVNNDMIVTDNNGAVKFPQLCKFCDVRFSTCDNQKSCMSNCSITSICEKPQEVCVAVWRKNDENITLETVCHDPKLPYHDFILEDAASPKCIMKEKKKPGETFFMCSCSSDECNDNIIFSEEYNTSNPDIPPHVQKSVNNDMIVTDNNGAVKFPQLCKFCDVRFSTCDNQKSCMSNCSITSICEKPQEVCVAVWRKNDENITLETVCHDPKLPYHDFILEDAASPKCIMKEKKKPGETFFMCSCSSDECNDNIIFSEEYNTSNPD
notes: Two human TβRII ectodomains in tandem with the native 35-residue linker (IPP restored), an N-terminal 8xHis tag and a thrombin site; also called modified N-His (TβRII)^2; bivalent N-His (TβRII)^2
IC50, neutralization assay in Mv1Lu luciferase reporter cells (TGF-β1 [1]): < 1 nM | IC50, neutralization of TGFβ1 (Mv1Lu luciferase reporter cells) (TGF-β1 [1]): 0.16 nM | IC50 (TGF-β1 [2]): 1.1 nM | IC50 (TGF-β1 [3]): 1.4 nM

B5: (ActRIIB)^2 (designed binder)
chain: SGSEQKLISEEDLLGRGEAETRECIYYNANWELERTNQSGLERCEGEQDKRLHCYASWRNSSGTIELVKKGCWLDDFNCYDRQECVATEENPQVYFCCCEGNFCNERFTHLPEAGGPEVTYEPPPTAPTSGRGEAETRECIYYNANWELERTNQSGLERCEGEQDKRLHCYASWRNSSGTIELVKKGCWLDDFNCYDRQECVATEENPQVYFCCCEGNFCNERFTHLPEAGGPEVTYEPPPTAPTHHHHHH
IC50, neutralization of myostatin in A204 cells with (CAGA)12-luciferase reporter (human myostatin (GDF8)): 0.1 nM | fold more potent than dimeric ActRIIb-Fc in neutralization of myostatin (human myostatin (GDF8)): 10 fold

Other lines, results leading:

IC50, neutralization of TGFβ1 (Mv1Lu luciferase reporter cells) (TGF-β1 [1]): 0.04 nM | fold more potent than N-His (TβRII)^2 in neutralization of TGFβ1 (TGF-β1 [1]): 4 fold | IC50 (TGF-β1 [3]): 0.6 nM
B2: N-His (TβRIIb)^2 (designed binder)
chain: APMAEGGGQNHHHHHHHHGGSFNPRIPPHVQKSVNNDMIVTDNNGAVKFPQLCKFCDVRFSTCDNQKSCMSNCSITSICEKPQEVCVAVWRKNDENITLETVCHDPKLPYHDFILEDAASPKCIMKEKKKPGETFFMCSCSSDECNDNIIFSEEYNTSNPDIPPHVQKSDVEMEAQKDEIICPSCNRTAHPLRHINNDMIVTDNNGAVKFPQLCKFCDVRFSTCDNQKSCMSNCSITSICEKPQEVCVAVWRKNDENITLETVCHDPKLPYHDFILEDAASPKCIMKEKKKPGETFFMCSCSSDECNDNIIFSEEYNTSNPD
notes: TβRII ectodomain followed by a TβRIIb ectodomain, giving a 60-residue linker, with an N-terminal His tag; also called (TβRII)^2 trap having a 60 amino acid linker

IC50, inhibition of TGF-β signaling in Mv1Lu luciferase reporter cells (TGF-β1 [1]): 0.58 nM | IC50 (TGF-β1 or -β3): 7.6 nM
B3: Prototype (TβRII)^2 (designed binder)
chain: TIPPEQKLISEEDLLHVQKSVNNDMIVTDNNGAVKFPQLCKFCDVRFSTCDNQKSCMSNCSITSICEKPQEVCVAVWRKNDENITLETVCHDPKLPYHDFILEDAASPKCIMKEKKKPGETFFMCSCSSDECNDNIIFSEEYNTSNPDGGRHVQKSVNNDMIVTDNNGAVKFPQLCKFCDVRFSTCDNQKSCMSNCSITSICEKPQEVCVAVWRKNDENITLETVCHDPKLPYHDFILEDAASPKCIMKEKKKPGETFFMCSCSSDECNDNIIFSEEYNTSNPDHHHHHH

binding result (TGF-β2): no binding (tested: 100 nM) | IC50 (TGF-β1 [4]): 8.1 nM | fold higher IC50 than N-His (TβRII)^2 (TGF-β1 [2]): ~8 fold
B4: N-His TβRII monomer (receptor)
chain: APMAEGGGQNHHHHHHHHGGSFNPRIPPHVQKSVNNDMIVTDNNGAVKFPQLCKFCDVRFSTCDNQKSCMSNCSITSICEKPQEVCVAVWRKNDENITLETVCHDPKLPYHDFILEDAASPKCIMKEKKKPGETFFMCSCSSDECNDNIIFSEEYNTSNPD
notes: Single TβRII ectodomain with an N-terminal His tag, produced in 293 cells; also called monomeric N-His TβRII; N-His TβRII (293 cells)
